Test results as given in patent US9663815B2, “Cytosolically-active peroxidases as reporters for microscopy” (Massachusetts Institute of Technology, priority 2011, dated 2017).
Residue numbers refer to the chain shown, from its start. In names and notes the source's numbering stands. Entries after “also recorded” stand apart in the source; their conditions may differ.

B1: wt APX: pea cytosolic ascorbate peroxidase (Pisum sativum), wild type, about 28 kD, dimeric (protein, listed as Pisum sativum)
chain: MGKSYPTVSPDYQKAIEKAKRKLRGFIAEKKCAPLILRLAWHSAGTFDSKTKTGGPFGTIKHQAELAHGANNGLDIAVRLLEPIKEQFPIVSYADFYQLAGVVAVEITGGPEVPFHPGREDKPEPPPEGRLPDATKGSDHLRDVFGKAMGLSDQDIVALSGGHTIGAAHKERSGFEGPWTSNPLIFDNSYFTELLTGEKDGLLQLPSDKALLTDSVFRPLVEKYAADEDVFFADYAEAHLKLSELGFAEA
B2: mAPX: double mutant K14D/E112K of pea APX (SEQ ID NO:1), monomeric (protein, listed as Pisum sativum)
chain: B1 chain with K14D, E112K

Legend:
[1] = system: HEK293T cells; test: Amplex UltraRed labeling (resorufin fluorescence) of cells expressing peroxidase; type: cell-based
Experimental: The expression and activity of wild-type (wt) APX was tested using immunostaining and Amplex UltraRed, a fluorogenic peroxidase substrate, in three cellular compartments: cytosol, mitochondrial matrix, and endoplasmic reticulum (ER). APX was differentially expressed in each compartment using at least the constructs described in Table 3. For comparison, HRP was tested in the same locations. Activity was monitored through visualization of resorufin, the fluorescent product of Amplex UltraRed oxidation by HRP or APX (scheme in FIG. 7). […] When live cells were imaged immediately after Amplex UltraRed labeling, resorufin fluorescence was seen throughout the entire cell. After fixation, however, the majority of the resorufin diffused out of the cells, and resorufin fluorescence remained only in the compartment in which APX was expressed. (Note that Amplex UltraRed, a proprietary derivative of Amplex Red, was used rather than Amplex Red in this example).
Further, Amplex UltraRed labeling and immunostaining of wtAPX, APX^W41F, mAPX, and APEX was performed on transfected HEK293T cells. Amplex UltraRed labeling was performed for 6 minutes. All APX variants were expressed with a C-terminal nuclear export signal (NES, see Table 3). […]

[2] = Gel filtration chromatography, oligomerization state; type: physicochemical
Experimental: APX, fluorescent protein, or miniSOG preparations were diluted to the desired concentrations using chilled (4° C.) PBS and then allowed to incubate at room temperature for 30 min to overnight. Samples (100 μL) were run on a Waters HPLC system over a Superdex 75 10/300 column (GE Healthcare) that had been pre-equilibrated in PBS, pH 7.4. Samples were run isocratically in PBS at a flow rate of 0.5 mL/min. Elution of APX was monitored at 280 nm and 405 nm (heme absorbance). Empower software (Waters) was used for analysis of elution profiles. Apparent MWs were determined against low molecular weight standards (GE). […] The apparent MW of the monomer for wt APX was assumed to be equal to the apparent MW of mAPX at 0.25 μM.
To investigate whether this localization is an artifact of APEX dimerization at high concentrations, the experiment was repeated using a tandem dimer of APX^W41F (two APX^W41F proteins linked with a short amino acid chain, denoted tdAPX) as well as miniSOG in place of APEX. Additionally, gel filtration chromatography (GFC) was used to assess the relative abundance of oligomers that formed at increasing tdAPX concentrations in vitro (5 μM, 20 μM, and 47 μM). Three different linker lengths (18, 23, and 28 amino acids) were tested. His6-tagged proteins were expressed and purified from E. coli. All three variants gave a major peak with an apparent molecular weight (MW) of ˜56 kDa, as expected for tdAPX. The apparent MW of the major peak remained constant as a function of concentration for all three constructs. […] Therefore, the 28 amino acid linker variant was selected as the optimized tandem dimer to be used in EM experiments.

[3] = system: connexin43 (Cx43); test: Connexin43 fusion localization to gap junctions; type: cell-based, rat; details: fused to connexin43
Experimental: Both mAPX and wt APX were fused to connexin43 (Cx43), a protein that is sensitive to oligomeric tags (FIG. 4d) (McKinney, et. al., Nat Meth 6, 131-133 (2009); Lauf, et. al., FEBS letters 498, 11-15 (2001)).
To generate a monomeric APX with improved activity, the two mAPX mutations (K14D/E112K) were added to each of the activity-enhanced mutants. […] The sextuple mutant (K14D, E112K, W41F, D133A, T135F, K136F=mAPX−FFAF), was compared to mAPX+W41F within cells. HEK cells were transfected with constructs targeted to the mitochondrial matrix (Table 3), while COS-7 cells were transfected with constructs fused to the C-terminus of connexin 43 (Table 3). After fixation, the cells were treated with DAB and H2O2 to generate DAB polymer. […] After fixation, cells were stained with anti-Flag (for matrix) or anti-myc (for connexin) antibody to visualize peroxidase expression levels. […] Therefore mAPX+W41F (K14D/E112K/W41F) was selected, denoted as “APEX” (for Enhanced APX), as the optimized reporter for subsequent experiments.
Any cell displaying detectable GFP fluorescence was considered transfected. Contact sites between neighboring transfected cells were identified using DIC imaging. Gap junctions were identified as lines of GFP fluorescence unambiguously overlaying with the plasma membrane of two transfected cells based on DIC. DAB stain intensity for APX-NES variants was analyzed using SlideBook. Transfected cells were identified by nuclear YFP fluorescence. In each transfected cell, a representative DAB-stained region was encircled, and its average brightfield intensity was calculated. Background intensity, determined for each field of view by encircling a representative region in the cytosol of an untransfected cell, was subtracted out. The bar graph in FIG. 2c represents mean data from >60 transfected cells.

Molecule | peroxidase activity toward Amplex UltraRed (resorufin) ([1]; expressed in cytosol, mitochondrial matrix and endoplasmic reticulum (ER)) | oligomerization state ([2]; PBS pH 7.4) | localization of connexin43 fusion / gap junction formation [3] | activity toward Amplex UltraRed ([1]; cytosol (NES), HEK293T, labeling 6 minutes) | oligomerization state ([2]; PBS pH 7.4, listed as APX K14D/E112K)
B1 | active in all contexts | predominantly dimeric at 0.25 μM; also recorded: runs as a dimer | abnormal retention inside cells |  | 
B2 |  | comparable to EYFP and much more monomeric than both wt APX and mEos2 |  | less active than wt APX | most monomericity
